For 15 molecules, binding result and Kd results are on record in patent US20240327530A1 (ICHNOS SCIENCES, published 2024).

Assay [1] deals with T1, Recombinant mouse IL-1RAP Fc fusion protein (Sino Biologicals, catalog no. 52657-M02H) (mouse, UniProt Q61730 21-350).
T1 construct: Bought; not shown: Fc part of the bought fusion protein
T1 sequence: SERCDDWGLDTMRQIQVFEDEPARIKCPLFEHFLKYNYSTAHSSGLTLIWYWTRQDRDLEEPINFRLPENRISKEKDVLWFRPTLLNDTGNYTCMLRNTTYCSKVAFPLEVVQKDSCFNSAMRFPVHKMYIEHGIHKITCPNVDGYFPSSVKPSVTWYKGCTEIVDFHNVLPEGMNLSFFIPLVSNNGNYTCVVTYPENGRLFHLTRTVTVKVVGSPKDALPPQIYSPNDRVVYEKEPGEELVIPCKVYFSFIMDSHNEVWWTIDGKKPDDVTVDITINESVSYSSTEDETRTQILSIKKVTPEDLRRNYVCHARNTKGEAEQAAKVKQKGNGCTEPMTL
The experiment in a line: SPR, mouse IL-1RAP-Fc captured, Fab as analyte. How it is done:
(§1) Surface plasmon resonance (SPR) was used to measure the binding affinities of the Fab fragments for human, cynomolgus monkey and/or mouse IL-1RAP. Affinities were measured on a BIACORE™ T200 instrument (BIACORE™, GE […]®) at 25° C. and analyzed with the BIACORE™ T200 Evaluation Software (v3.1). Measurements were performed on Series S CM5 sensor chips (BIACORE™ T200, BIACORE™, GE […]®, catalog no. BR100530) coupled with anti-human IgG Fc (BIACORE™, GE […]®, catalog no. BR100839) using a commercial amine coupling kit (BIACORE™, GE […]®, catalog no. BR100050) or on Series S BiotinCAPture chips (BIACORE™, GE […]®, catalog no. 28920234). SPR measurements were performed with commercially available recombinant human IL-1RAP Fc fusion protein (Acrobiosystems, catalog no. ILP-H5256) and recombinant mouse IL-1RAP Fc fusion protein (Sino Biologicals, catalog no. 52657-M02H) or with biotinylated recombinant cynomolgus monkey IL-1RAP-avi-his protein produced in-house (SEQ ID NO. 2).
(§2) The affinities to human, cynomolgus monkey and mouse IL-1RAP were assessed by immobilizing IL-1RAP and using Fab fragments as analyte. Around 100 RU of human or mouse IL-1RAP Fc fusion protein were captured on fc2 of a Series S CM5 sensor chip coupled with anti-human IgG Fc and around 150 RU of biotinylated cynomolgus monkey IL-1RAP protein were captured on fc2 of a Series S BiotinCAPture chip. Fab fragments were injected in single cycle kinetic at different concentrations ranging from 7.8 to 500 nM, in HBS-EP+ buffer (BIACORE™, GE […]®, catalog no. BR100669) at a flow rate of 30 μl/min for 3 min on fc1 and fc2 (fc1 being used as reference). Dissociation was monitored for 5 min. After each cycle, the surface was regenerated with 60 μl of regeneration solution provided with anti-human IgG Fc capture kit (BIACORE™, GE […]®, catalog no. BR100839) or BiotinCAPture kit (BIACORE™, GE […]®, catalog no. 28920234) respectively. Experimental data were processed using the 1:1 Langmuir kinetic fitting model. Measurements included zero-concentration samples for referencing. Chi², U- and residual values were used to evaluate the quality of a fit between the experimental data and individual binding models.
A general note: In SPR one partner is held on a chip, and binding of the other changes the refractive index at the surface.

Assay [2] has as its target T2, Recombinant human IL-1RAP Fc fusion protein (Acrobiosystems, catalog no. ILP-H5256) (human, UniProt Q9NPH3 21-359, limits assumed).
T2 construct: Bought; not shown: Fc part of the bought fusion protein
T2 sequence: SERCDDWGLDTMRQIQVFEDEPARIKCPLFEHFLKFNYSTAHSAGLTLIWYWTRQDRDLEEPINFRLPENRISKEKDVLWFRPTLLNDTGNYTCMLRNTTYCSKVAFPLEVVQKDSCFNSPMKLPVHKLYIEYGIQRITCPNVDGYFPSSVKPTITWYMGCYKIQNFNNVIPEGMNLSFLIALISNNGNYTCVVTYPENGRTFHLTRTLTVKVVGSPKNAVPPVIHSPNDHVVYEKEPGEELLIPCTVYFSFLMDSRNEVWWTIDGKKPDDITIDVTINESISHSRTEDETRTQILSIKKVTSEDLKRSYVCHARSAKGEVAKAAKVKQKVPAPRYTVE
The experiment in a line: SPR, human IL-1RAP-Fc captured, Fab as analyte, 1:1 fit. As to the method:
as §1, §2

Assay [3] has as its target T3, Recombinant cynomolgus monkey IL-1RAP-ECD(S21-E359)-avi-his protein (cynomolgus monkey, UniProt P59822 21-359 (rhesus entry)).
T3 construct: also called cyno IL-1RAP-ECD-Avi-His; recombinant cynomolgus monkey IL-1RAP-avi-his protein
T3 sequence: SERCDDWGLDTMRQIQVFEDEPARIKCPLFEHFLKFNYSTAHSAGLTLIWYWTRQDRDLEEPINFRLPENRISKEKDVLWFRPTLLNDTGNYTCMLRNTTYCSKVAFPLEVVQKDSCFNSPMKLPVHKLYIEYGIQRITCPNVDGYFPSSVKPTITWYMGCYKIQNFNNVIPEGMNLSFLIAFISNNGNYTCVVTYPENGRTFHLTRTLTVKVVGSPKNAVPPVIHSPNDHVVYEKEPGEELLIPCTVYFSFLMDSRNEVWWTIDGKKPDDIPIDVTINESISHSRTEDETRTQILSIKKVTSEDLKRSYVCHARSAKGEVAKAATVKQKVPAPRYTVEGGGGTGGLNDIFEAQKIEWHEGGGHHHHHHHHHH
The experiment in a line: SPR, biotinylated cyno IL-1RAP-avi-his captured, Fab as analyte, 1:1 fit. As to the method:
as §1, §2

B1: Anti-IL-1RAP-UCP02-G3-Fab (Fab, V domains shown)
VH: QVQLVQSGAEVKKPGSSVKVSCKASGGYLNEYAIHWVRQAPGQGLEWMGAVIPRYGQTYYAQKFQGRVTITADESTSTAYMELSSLRSEDTAVYYCARPLGYSYGWFDYWGQGTLVTVSS
VL: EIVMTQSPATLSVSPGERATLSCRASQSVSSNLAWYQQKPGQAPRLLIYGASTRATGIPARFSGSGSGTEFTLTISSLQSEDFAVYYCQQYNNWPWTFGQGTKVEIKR
On to B1, for which, in assay [1], the binding result is recorded as “no binding (tested: 7.8 to 500 nM Fab)”. For the same molecule, the Kd (as a rule, the equilibrium constant for the complex coming apart) came out at 0.23 µM in assay [2] and 0.296 µM in assay [3].

B2: Anti-IL-1RAP-UCP02-C8-Fab (Fab, V domains shown)
VH: QVQLVQSGAEVKKPGSSVKVSCKASGGQFSEYAIQWVRQAPGQGLEWMGYIIPLHGQVDYAQKFQGRVTITADESTSTAYMELSSLRSEDTAVYYCARGQTLYDSGRQFDIWGQGTLVTVSS
VL: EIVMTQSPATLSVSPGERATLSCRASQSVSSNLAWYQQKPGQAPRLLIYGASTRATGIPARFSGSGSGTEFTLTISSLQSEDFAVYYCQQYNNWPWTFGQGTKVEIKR
notes: also called anti-IL-1RAP-C8; anti-IL-1RAP-C8 Fab
On to B2, for which the binding result in assay [1] is “no binding (tested: 7.8 to 500 nM Fab)”. For the same molecule, the Kd in assay [2] and in assay [3] was 0.0022 µM each time.

B3: Anti-IL-1RAP-UCP02-D2-Fab (Fab, V domains shown)
VH: QVQLVQSGAEVKKPGSSVKVSCKASGGRFSDSAIHWVRQAPGQGLEWMGYILPQFGAPLYAQKFQGRVTITADESTSTAYMELSSLRSEDTAVYYCARGSYYGVVGYVPDDYWGQGTLVTVSS
VL: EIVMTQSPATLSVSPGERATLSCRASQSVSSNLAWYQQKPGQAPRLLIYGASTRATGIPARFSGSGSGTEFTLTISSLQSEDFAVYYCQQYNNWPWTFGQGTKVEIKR
Turning to B3, in assay [1], the binding result is listed as “no binding (tested: 7.8 to 500 nM Fab)”. Moreover, the Kd was determined as 0.049 µM in assay [2] and 0.0509 µM in assay [3].

B4: Anti-IL-1RAP-UCP02-A4-Fab (Fab, V domains shown)
VH: QVQLVQSGAEVKKPGSSVKVSCKASGGVFSYYAISWVRQAPGQGLEWMGAIIPDFGHTIYAQKFQGRVTITADESTSTAYMELSSLRSEDTAVYYCARASPYKGWWDYWGQGTLVTVSS
VL: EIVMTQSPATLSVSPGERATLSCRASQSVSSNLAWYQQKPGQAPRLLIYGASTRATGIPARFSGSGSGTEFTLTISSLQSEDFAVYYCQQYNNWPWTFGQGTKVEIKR
In the case of B4, the binding result in assay [1] is recorded as “no binding (tested: 7.8 to 500 nM Fab)”. Further, the Kd in assay [2] was 0.0843 µM; in assay [3], 0.103 µM.

B5: Anti-IL-1RAP-UCP02-G11-Fab (Fab, V domains shown)
VH: QVQLVQSGAEVKKPGSSVKVSCKASGGQFNDYAIHWVRQAPGQGLEWMGYIIPAYGQAEYAQKFQGRVTITADESTSTAYMELSSLRSEDTAVYYCARVPYSTAYFDYWGQGTLVTVSS
VL: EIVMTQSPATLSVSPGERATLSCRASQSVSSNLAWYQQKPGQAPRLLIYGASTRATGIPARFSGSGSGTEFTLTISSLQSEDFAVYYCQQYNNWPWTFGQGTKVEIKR
Regarding B5, the binding result in assay [1] is on record as “no binding (tested: 7.8 to 500 nM Fab)”. For the same molecule, the Kd amounted to 0.26 µM in assay [2] and 0.345 µM in assay [3].

B6: Anti-IL-1RAP-UCP02-C5-Fab (Fab, V domains shown)
VH: QVQLVQSGAEVKKPGSSVKVSCKASGGHFNIYAISWVRQAPGQGLEWMGYIIPSLGAVDYAQKFQGRVTITADESTSTAYMELSSLRSEDTAVYYCARASIYHGWMAYWGQGTLVTVSS
VL: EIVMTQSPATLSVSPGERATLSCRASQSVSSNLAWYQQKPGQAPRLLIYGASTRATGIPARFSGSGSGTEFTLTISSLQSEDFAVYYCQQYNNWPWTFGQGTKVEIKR
In the case of B6, the binding result in assay [1] is given as “no binding (tested: 7.8 to 500 nM Fab)”. Besides, the Kd is 0.368 µM in assay [2] and 0.334 µM in assay [3].

B7: Anti-IL-1RAP-UCP02-G8-Fab (Fab, V domains shown)
VH: QVQLVQSGAEVKKPGSSVKVSCKASGGFFSIYAISWVRQAPGQGLEWMGGIAPAAGIAEYAQKFQGRVTITADESTSTAYMELSSLRSEDTAVYYCARGQSPGRVREEYWYDYWGQGTLVTVSS
VL: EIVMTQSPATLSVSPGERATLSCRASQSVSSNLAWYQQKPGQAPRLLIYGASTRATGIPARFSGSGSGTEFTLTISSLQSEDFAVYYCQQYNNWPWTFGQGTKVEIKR
Consider B7, for which the binding result in assay [1] was “no binding (tested: 7.8 to 500 nM Fab)”. Also, the Kd in assay [2] was determined as 0.0735 µM; in assay [3], 0.116 µM.

B8: Anti-IL-1RAP-UCP03-A3-Fab (Fab, V domains shown)
VH: QVQLVQSGAEVKKPGSSVKVSCKASGGLFNENAIHWVRQAPGQGLEWMGGIIPDVGAAFYAQKFQGRVTITADESTSTAYMELSSLRSEDTAVYYCARGSIYTAWFAVWGQGTLVTVSS
VL: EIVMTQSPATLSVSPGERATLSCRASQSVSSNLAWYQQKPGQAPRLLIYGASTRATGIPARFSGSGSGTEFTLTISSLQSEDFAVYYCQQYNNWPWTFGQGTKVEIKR
B8: in assay [1], the binding result is on record as “no binding (tested: 7.8 to 500 nM Fab)”. Besides, the figures for the Kd in assay [2] and in assay [3] were 0.137 µM and 0.177 µM, respectively.

B9: Anti-IL-1RAP-UCP03-C1-Fab (Fab, V domains shown)
VH: QVQLVQSGAEVKKPGSSVKVSCKASGGRFSSNAISWVRQAPGQGLEWMGGIIPHFGAVYYAQKFQGRVTITADESTSTAYMELSSLRSEDTAVYYCARGSVYTGWFDNWGQGTLVTVSS
VL: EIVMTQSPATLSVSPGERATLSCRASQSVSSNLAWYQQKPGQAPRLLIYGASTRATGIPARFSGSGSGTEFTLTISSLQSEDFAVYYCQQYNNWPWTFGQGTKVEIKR
Turning to B9, in assay [1], the binding result was “no binding (tested: 7.8 to 500 nM Fab)”. In addition, the Kd in assay [2] came out at 0.573 µM; in assay [3] it was 0.761 µM.

B10: Anti-IL-1RAP-UCP03-F4-Fab (Fab, V domains shown)
VH: QVQLVQSGAEVKKPGSSVKVSCKASGGGFSEYAIHWVRQAPGQGLEWMGAILPEQGAAYYAQKFQGRVTITADESTSTAYMELSSLRSEDTAVYYCARVGLYVPYMDIWGQGTLVTVSS
VL: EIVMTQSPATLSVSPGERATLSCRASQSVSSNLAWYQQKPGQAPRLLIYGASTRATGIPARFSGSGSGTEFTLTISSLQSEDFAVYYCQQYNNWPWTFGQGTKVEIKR
Consider B10, for which the binding result in assay [1] is recorded as “no binding (tested: 7.8 to 500 nM Fab)”. The Kd in assay [2] is 0.888 µM.

B11: Anti-IL-1RAP-UCP02-H8-Fab (Fab, V domains shown)
VH: QVQLVQSGAEVKKPGSSVKVSCKASGGVFSGYAISWVRQAPGQGLEWMGGIIPEFGATNYAQKFQGRVTITADESTSTAYMELSSLRSEDTAVYYCARHSSAYSPWFDYWGQGTLVTVSS
VL: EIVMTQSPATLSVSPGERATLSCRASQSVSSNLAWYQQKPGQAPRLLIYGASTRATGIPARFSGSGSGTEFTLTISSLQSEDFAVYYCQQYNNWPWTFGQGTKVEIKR
With B11, the binding result in assay [1] was “no binding (tested: 7.8 to 500 nM Fab)”. Also, the dissociation constant (Kd) in assay [2] is 0.328 µM; in assay [3], 0.297 µM.

B12: Anti-IL-1RAP-UCP02-H9-Fab (Fab, V domains shown)
VH: QVQLVQSGAEVKKPGSSVKVSCKASGGPFSSYALSWVRQAPGQGLEWMGGIIPHHGATYYAQKFQGRVTITADESTSTAYMELSSLRSEDTAVYYCARHPDVYTPWFDVWGQGTLVTVSS
VL: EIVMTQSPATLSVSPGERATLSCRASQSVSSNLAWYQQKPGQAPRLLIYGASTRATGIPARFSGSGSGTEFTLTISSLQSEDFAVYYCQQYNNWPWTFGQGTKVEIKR
Take B12: in assay [1], the binding result is “no binding (tested: 7.8 to 500 nM Fab)”. In addition, the Kd in assay [2] worked out at 0.907 µM; in assay [3], 0.682 µM.

B13: Anti-IL-1RAP-UCP02-C9-Fab (Fab, V domains shown)
VH: QVQLVQSGAEVKKPGSSVKVSCKASGGVFSYYAFHWVRQAPGQGLEWMGGIIPGYGATFYAQKFQGRVTITADESTSTAYMELSSLRSEDTAVYYCARPVSYSSGWYDYWGQGTLVTVSS
VL: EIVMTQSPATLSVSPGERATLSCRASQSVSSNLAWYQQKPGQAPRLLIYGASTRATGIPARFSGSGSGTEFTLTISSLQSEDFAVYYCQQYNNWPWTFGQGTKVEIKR
Take B13: the binding result in assay [1] was “no binding (tested: 7.8 to 500 nM Fab)”. The Kd was 0.0356 µM in assay [2] and 0.0278 µM in assay [3].

B14: Anti-IL-1RAP-UCP02-A6-Fab (Fab, V domains shown)
VH: QVQLVQSGAEVKKPGSSVKVSCKASGGAFRIYAIHWVRQAPGQGLEWMGGILASGGGAVYAQKFQGRVTITADESTSTAYMELSSLRSEDTAVYYCARAKDIYGYGYGDIWGQGTLVTVSS
VL: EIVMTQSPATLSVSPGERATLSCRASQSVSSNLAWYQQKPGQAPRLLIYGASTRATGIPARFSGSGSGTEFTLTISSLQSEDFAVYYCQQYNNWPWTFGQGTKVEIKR
On to B14, for which, in assay [1], the binding result is given as “no binding (tested: 7.8 to 500 nM Fab)”. Also, the equilibrium dissociation constant (Kd) in assay [2] amounted to 0.223 µM; in assay [3], 0.197 µM.

B15: Anti-IL-1RAP-UCP03-A2-Fab (Fab, V domains shown)
VH: QVQLVQSGAEVKKPGSSVKVSCKASGGKFNFDVIHWVRQAPGQGLEWMGGIIPDFASTHYAQKFQGRVTITADESTSTAYMELSSLRSEDTAVYYCARVPDYYTGWMAYWGQGTLVTVSS
VL: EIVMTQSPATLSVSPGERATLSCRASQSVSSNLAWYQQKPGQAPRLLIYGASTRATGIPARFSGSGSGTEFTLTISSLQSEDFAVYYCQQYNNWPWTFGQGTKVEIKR
For B15, the binding result in assay [1] is on record as “no binding (tested: 7.8 to 500 nM Fab)”. The Kd was found to be 0.582 µM in assay [2] and 0.589 µM in assay [3].
